{
  "source": "paper PMC9932118",
  "binders": {"B1": {"name": "CAST crystal DNA 8E3E (dsDNA)", "DNA 1": "GGTAAAAGACCCCTCCCCAAA", "DNA 2": "CTTTGGGGAGGGGTCTTTTAC"}, "B2": {"name": "oligo #6 CAST 16 bp (dsDNA)", "DNA 1": "AAGACCCCTCCCCGAA", "DNA 2": "TTCGGGGAGGGGTCTT"}, "B3": {"name": "GaCCC crystal DNA 7N5V (dsDNA)", "DNA 1": "GGGACCCTTGATGTTT", "DNA 2": "AAACATCAAGGGTCCC"}, "B4": {"name": "CAST crystal DNA 8E3D (dsDNA)", "DNA 1": "GGTAAAAGACCCCTCCCCAAAT", "DNA 2": "ATTTGGGGAGGGGTCTTTTACC"}, "B5": {"name": "GaCCC crystal DNA 7N5W (dsDNA)", "DNA 1": "GGGACCCTTCATGTTT", "DNA 2": "CAAACATGAAGGGTCC"}, "B6": {"name": "GaCCC crystal DNA 7N5U (dsDNA)", "DNA 1": "GGGACCCTTGATGTTT", "DNA 2": "CAAACATCAAGGGTCC"}},
  "key": {"[1]": {"target": "T1, ZBTB7A long fragment (Homo sapiens, UniProt O95365 341-505)", "T1 sequence (O95365 341-505)": "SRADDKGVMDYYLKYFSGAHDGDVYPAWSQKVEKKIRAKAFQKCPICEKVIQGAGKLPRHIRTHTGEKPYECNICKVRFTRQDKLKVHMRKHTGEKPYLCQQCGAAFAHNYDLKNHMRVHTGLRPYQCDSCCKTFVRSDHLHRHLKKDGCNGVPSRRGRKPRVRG", "assay": "X-ray crystallography"}, "[2]": {"target": "T2, ZBTB7A ZF1-4 short fragment (Homo sapiens, UniProt O95365 370-500)", "T2 sequence (O95365 370-500)": "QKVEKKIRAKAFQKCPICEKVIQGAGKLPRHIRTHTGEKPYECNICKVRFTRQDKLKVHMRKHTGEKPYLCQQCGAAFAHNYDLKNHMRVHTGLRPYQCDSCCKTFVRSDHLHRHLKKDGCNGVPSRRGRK", "assay": "FP"}, "[3]": {"target": "T1, ZBTB7A long fragment", "assay": "FP"}, "[4]": {"target": "T2, ZBTB7A ZF1-4 short fragment", "assay": "X-ray crystallography"}, "[5]": {"target": "T2, ZBTB7A ZF1-4 short fragment", "assay": "X-ray crystallography", "remark": "listed apart in the source"}, "[6]": {"target": "T2, ZBTB7A ZF1-4 short fragment", "assay": "X-ray crystallography", "remark": "listed apart in the source"}, "[7]": {"target": "T2, ZBTB7A ZF1-4 short fragment", "assay": "X-ray crystallography", "remark": "listed apart in the source"}},
  "note": "Like-named read-outs stand apart in the source and are kept apart here.",
  "data": [
    {"binder": "B1", "values": [
      {"measurement": "binding result", "setting": "[1]", "value": "binds"}
    ]},
    {"binder": "B2", "values": [
      {"measurement": "Kd", "setting": "[2]", "value": "~80", "unit": "nM"},
      {"measurement": "Kd", "setting": "[3]", "value": "~80", "unit": "nM"}
    ]},
    {"binder": "B3", "values": [
      {"measurement": "binding result", "setting": "[4]", "value": "binds"}
    ]},
    {"binder": "B4", "values": [
      {"measurement": "binding result", "setting": "[5]", "value": "binds"}
    ]},
    {"binder": "B5", "values": [
      {"measurement": "binding result", "setting": "[6]", "value": "binds"}
    ]},
    {"binder": "B6", "values": [
      {"measurement": "binding result", "setting": "[7]", "value": "binds"}
    ]}
  ]
}
